Measurements as given in US20240294650A1 (Alector, published 2024).

B1: MTK-216 (antibody, human IgG1, V domains shown)
VH: EVQLVESGGGLVKPGGSLKLSCAASGFTFSDYGMHWVRQAPEKGLEWVAFISSGSTTIYYADTVKGRFTISRDNAKNTLILQMTSLRSEDTAIYYCTRGGFHLDYWGQGTTLTVSS
VL: SIMMTQSPSSLAVSAGEKVTMGCKSSQSVLYSANQQNYLAWYQQKPGQSLKLLIYWASTRESGVPDRFTGSGSGTDFTLTISSVQAEDLAVYYCHQYFSSWTFGGGTKLEIK
B2: MTK-207 (antibody, human IgG1, V domains shown)
VH: QVQLKESGPGLVAPSQSLSITCTVSGISLTSYGVSWVRQPPGKGLEWLGIIWGDGSTNYHSALISRLSISKDNSKSQVFLKLNSLQTDDTATYYCAKGRYGNYEDWYFDVWGTGTTVTVSS
VL: DIQMTQSPASLSASVGETVTITCRASGNIHNYLAWYQQKQGKSPQLLVYNAKTLAAGVPSRFSGSGSGTQYSLKINSLQPEDFGSYYCQHFWSIPLTFGAGTKLELK

Biological target: T1, recombinant cynomolgus MerTK extracellular domain (cynomolgus, UniProt Q12866 21-505 (human entry))
T1 construct: also called cyno MerTK ECD; not shown: polyHis or TEVS/Thrombin/murine IgG2a-Fc tag
T1 chain: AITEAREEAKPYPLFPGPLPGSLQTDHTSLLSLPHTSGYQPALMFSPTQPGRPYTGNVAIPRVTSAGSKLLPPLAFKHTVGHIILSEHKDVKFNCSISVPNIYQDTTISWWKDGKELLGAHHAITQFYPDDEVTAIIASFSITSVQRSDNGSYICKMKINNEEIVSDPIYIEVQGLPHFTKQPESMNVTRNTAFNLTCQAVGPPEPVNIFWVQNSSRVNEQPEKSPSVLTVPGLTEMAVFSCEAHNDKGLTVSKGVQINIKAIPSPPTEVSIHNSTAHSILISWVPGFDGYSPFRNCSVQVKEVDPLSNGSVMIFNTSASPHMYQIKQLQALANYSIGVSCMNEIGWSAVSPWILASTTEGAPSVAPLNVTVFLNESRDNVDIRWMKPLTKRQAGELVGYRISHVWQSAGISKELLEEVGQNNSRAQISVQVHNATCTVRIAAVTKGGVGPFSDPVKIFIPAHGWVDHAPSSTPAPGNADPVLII
Assay: SPR Carterra LSA, Ab immobilised; LB = low binding (below limit of measurement), KD not determined

Binder | binding result
B1 | binds
B2 | binds
